# Measured values as given in US20020137213A1 (published 2002).
# T1: coxsackie adenovirus receptor (CAR), human, on HeLa cells (human, UniProt P78310 20-365)
# T1 sequence: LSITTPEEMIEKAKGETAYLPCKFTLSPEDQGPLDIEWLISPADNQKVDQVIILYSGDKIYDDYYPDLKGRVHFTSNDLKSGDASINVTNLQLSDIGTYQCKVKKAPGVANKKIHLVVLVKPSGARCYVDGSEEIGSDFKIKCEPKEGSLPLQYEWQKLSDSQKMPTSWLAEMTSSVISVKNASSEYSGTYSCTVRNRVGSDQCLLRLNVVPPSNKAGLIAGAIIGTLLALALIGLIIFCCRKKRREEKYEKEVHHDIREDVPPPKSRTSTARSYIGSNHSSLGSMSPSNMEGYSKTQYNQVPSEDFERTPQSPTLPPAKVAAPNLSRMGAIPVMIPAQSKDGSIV
# B1: wildtype Ad5 fiber protein (other)
# chain: MKRARPSEDTFNPVYPYDTETGPPTVPFLTPPFVSPNGFQESPPGVLSLRLSEPLVTSNGMLALKMGNGLSLDEAGNLTSQNVTTVSPPLKKTKSNINLEISAPLTVTSEALTVAAAAPLMVAGNTLTMQSQAPLTVHDSKLSIATQGPLTVSEGKLALQTSGPLTTTDSSTLTITASPPLTTATGSLGIDLKEPIYTQNGKLGLKYGAPLHVTDDLNTLTVATGPGVTINNTSLQTKVTGALGFDSQGNMQLNVAGGLRIDSQNRRLILDVSYPFDAQNQLNLRLGQGPLFINSAHNLDINYNKGLYLFTASNNSKKLEVNLSTAKGLMFDATAIAINAGDGLEFGSPNAPNTNPLKTKIGHGLEFDSNKAMVPKLGTGLSFDSTGAITVGNKNNDKLTLWTTPAPSPNCRLNAEKDAKLTLVLTKCGSQILATVSVLAVKGSLAPISGTVQSAHLIIRFDENGVLLNNSFLDPEYWNFRNGDLTEGTAYTNAVGFMPNLSAYPKSHGKTAKSNIVSQVYLNGDKTKPVTLTITLNGTQETGDTTPSAYSMSFSWDWSGHNYINEIFATSSYTFSYIAQE
# B2: KO4+5 mutant Ad5 fiber protein (ΔG509, K510, ΔG538, T539) (other)
# chain: MKRARPSEDTFNPVYPYDTETGPPTVPFLTPPFVSPNGFQESPPGVLSLRLSEPLVTSNGMLALKMGNGLSLDEAGNLTSQNVTTVSPPLKKTKSNINLEISAPLTVTSEALTVAAAAPLMVAGNTLTMQSQAPLTVHDSKLSIATQGPLTVSEGKLALQTSGPLTTTDSSTLTITASPPLTTATGSLGIDLKEPIYTQNGKLGLKYGAPLHVTDDLNTLTVATGPGVTINNTSLQTKVTGALGFDSQGNMQLNVAGGLRIDSQNRRLILDVSYPFDAQNQLNLRLGQGPLFINSAHNLDINYNKGLYLFTASNNSKKLEVNLSTAKGLMFDATAIAINAGDGLEFGSPNAPNTNPLKTKIGHGLEFDSNKAMVPKLGTGLSFDSTGAITVGNKNNDKLTLWTTPAPSPNCRLNAEKDAKLTLVLTKCGSQILATVSVLAVKGSLAPISGTVQSAHLIIRFDENGVLLNNSFLDPEYWNFRNGDLTEGTAYTNAVGFMPNLSAYPKSHTAKSNIVSQVYLNGDKTKPVTLTITLNQETGDTTPSAYSMSFSWDWSGHNYINEIFATSSYTFSYIAQE
# Target: coxsackie adenovirus receptor (CAR), human, on HeLa cells (human) (UniProt P78310)
# Assay: cell-based or functional assay
Molecule,"Mean % wt βgal activity, transduction of Hela cells [% wt]","Representative avg βgal activity (RLU/ug protein), transduction of Hela cells at 1000 particles per cell (RLU/ug protein)","fold reduction in fiber-mediated gene transfer, Hela cells [fold]","fold reduction of β-galactosidase activity against wildtype fiber, Hela cells [fold]","decrease in transduction efficiency, Hela cells [fold]"
KO3 mutant Ad5 fiber protein (R460E) (from UniProt P11818 1-581),63.3,359000,–,–,–
KO8 mutant Ad5 fiber protein (N464T) (from UniProt P11818 1-581),92.6,470000,–,–,–
KO2b mutant Ad5 fiber protein (ΔK442) (from UniProt P11818 1-581),8.3,44400,–,–,–
"KO2c mutant Ad5 fiber protein (V441A, K442A) (from UniProt P11818 1-581)",8.5,53300,12,–,–
"KO1+2 mutant Ad5 fiber protein (S408E, P409A, ΔV441, K442) (from UniProt P11818 1-581)",0.1,472,1000,1000,–
KO10 mutant Ad5 fiber protein (P505A) (from UniProt P11818 1-581),79.6,447000,–,–,–
"KO4 mutant Ad5 fiber protein (ΔG509, K510) (from UniProt P11818 1-581)",38.2,213000,–,–,–
KO2a mutant Ad5 fiber protein (ΔV441) (from UniProt P11818 1-581),0.6,4000,–,167,> 160
"KO5 mutant Ad5 fiber protein (ΔG538, T539) (from UniProt P11818 1-581)",58.3,331000,–,–,–
"KO11 mutant Ad5 fiber protein (Δ404-581, knob replaced by GCN4 isoleucine 31 amino acid peptide) (from UniProt P11818 1-403)",0.8,4520,–,125,–
"KO1 mutant Ad5 fiber protein (S408E, P409A) (from UniProt P11818 1-581)",1.4,7620,–,70,–
"KO2 mutant Ad5 fiber protein (ΔV441, K442) (from UniProt P11818 1-581)",0.6,3320,–,167,> 160
KO9 mutant Ad5 fiber protein (V466H) (from UniProt P11818 1-581),80.9,391000,–,–,–

# Target: T1, coxsackie adenovirus receptor (CAR), …
# Assay: cell-based or functional assay
row,Molecule,"Mean % wt βgal activity, transduction of Hela cells [% wt]"
1,B1,100
2,B2,91.1
